Here are results for five molecules from patent publication US20060024289.

Where “and” joins values, the source holds several entries; their conditions need not be identical. Equal values may be shown once.

The subject of series [1] is T1, Ac-RRVR-AMC.
T1 sequence: RRVR

The target in series [2] is VEGF165 (UniProt P15692).
The subject of series [3] is T2, Ac-IEPD-AMC.
T2 sequence: XIEPDX

The target in series [4] is T3, Ac-RQAR-AMC.
T3 chain: RQAR

The target of series [5] is T4, VEGF165, P15692.
T4 chain: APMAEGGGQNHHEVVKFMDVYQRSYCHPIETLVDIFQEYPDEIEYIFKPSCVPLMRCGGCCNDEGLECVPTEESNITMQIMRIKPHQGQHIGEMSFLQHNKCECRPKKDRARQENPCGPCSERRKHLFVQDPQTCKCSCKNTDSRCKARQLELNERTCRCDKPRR

Series [6] addresses T5, extracellular domain of VEGF-R2 (Flk1) fused to the Fc domain of mouse IgG.
T5 chain: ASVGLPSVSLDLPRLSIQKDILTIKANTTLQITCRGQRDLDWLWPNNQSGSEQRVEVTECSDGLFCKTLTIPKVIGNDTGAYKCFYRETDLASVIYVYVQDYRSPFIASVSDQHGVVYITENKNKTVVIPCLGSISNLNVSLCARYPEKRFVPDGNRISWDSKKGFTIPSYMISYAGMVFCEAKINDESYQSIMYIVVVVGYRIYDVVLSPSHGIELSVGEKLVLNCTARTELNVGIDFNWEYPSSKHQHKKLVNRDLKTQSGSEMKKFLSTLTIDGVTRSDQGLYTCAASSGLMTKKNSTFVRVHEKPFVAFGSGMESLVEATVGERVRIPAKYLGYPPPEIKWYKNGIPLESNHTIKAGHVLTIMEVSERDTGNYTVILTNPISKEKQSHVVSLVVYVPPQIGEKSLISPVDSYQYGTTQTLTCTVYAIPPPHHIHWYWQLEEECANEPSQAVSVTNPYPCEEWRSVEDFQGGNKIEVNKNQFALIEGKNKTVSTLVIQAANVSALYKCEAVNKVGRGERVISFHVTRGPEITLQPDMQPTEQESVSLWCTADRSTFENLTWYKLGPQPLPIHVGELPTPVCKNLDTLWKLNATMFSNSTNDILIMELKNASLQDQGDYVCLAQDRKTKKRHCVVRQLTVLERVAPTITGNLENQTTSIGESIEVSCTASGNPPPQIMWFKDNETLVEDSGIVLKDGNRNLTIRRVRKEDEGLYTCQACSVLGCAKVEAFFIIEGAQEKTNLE

Series [7] deals with T6, Ac-IEPD-AMC.
T6 chain: XIEPDX

Series [8] concerns the target T7, Ac-LEPD-AMC.
T7 chain: XLEPDX

For series [9], the target named is T8, Ac-LEFD-AMC.
T8 chain: XLEFDX

In series [10] the target is T9, Ac-IEFD-AMC.
T9 chain: XIEFDX

Series [11] concerns the target T6, Ac-IEPD-AMC. The series is described as follows: Michaelis-Menten kinetics of fluorogenic tetrapeptide hydrolysis.
Series [12] has as its target T7, Ac-LEPD-AMC. The series is described as above.
Series [13] addresses T8, Ac-LEFD-AMC. The series is described as above.
Series [14] has as its target T9, Ac-IEFD-AMC. The series is described as above.
The target in series [15] is T10, Ac-IAPD-ACC.
T10 chain: XIAPDX

The target in series [16] is T11, Ac-IKPD-AMC.
T11 chain: XIKPDX

The target in series [17] is T12, Ac-IETD-AMC.
T12 chain: XIETDX

The target of series [18] is T11, Ac-IKPD-AMC. The series is described as follows: Michaelis-Menten kinetics of fluorogenic tetrapeptide hydrolysis.
Series [19] addresses T12, Ac-IETD-AMC. Described as above.

With MT-SP1 mutein CB152 (F99V/K224F), the “preference of RRVR over RQAR substrate (ratio of kcat/Km)” value in [1] is recorded as “prefer RRVR to RQAR by greater than 8 fold”. Further, the “cleavage of 5 µM VEGF165 by 100 nM protease, 37° C., five hours (SDS-PAGE, silver stain)” value in series [2] is given as “while the more selective variant CB152 does not”.
For the molecule rat granzyme B R192A, the “specificity constant (kcat/Km)” value in series [3] was determined as 55 M⁻¹ s⁻¹.

B1: wild-type MT-SP1 protease domain (protein)
chain: VVGGTDADEGEWPWQVSLHALGQGHICGASLISPNWLVSAAHCYIDDRGFRYSDPTQWTAFLGLHDQSQRSAPGVQERRLKRIISHPFFNDFTFDYDIALLELEKPAEYSSMVRPICLPDASHVFPAGKAIWVTGWGHTQYGGTGALILQKGEIRVINQTTCENLLPQQITPRMMCVGFLSGGVDSCQGDSGGPLSSVEADGRIFQAGVVSWGDGCAQRNKPGVYTRLPLFRDWIKENTGV
For the molecule B1, the preference of RQAR over RRVR substrate (ratio of kcat/Km) in series [4] came to 2 times. Also, the “cleavage of 5 µM VEGF165 by 100 nM protease, 37° C., five hours (SDS-PAGE, silver stain)” value in [5] is reported as “MT-SP1 efficiently cleaves VEGF^165 under the assay conditions”. In [6], the “cleavage of purified Flk1-Fc by 1 µM protease (SDS-PAGE, Edman sequencing)” value was “Purified VEGFR2-Fc is cleaved by wild-type and mutant MT-SP1 at the sequence RRVR/KEDE in the extracellular stalk region of the receptor”; the “cleavage of purified VEGFR2-Fc (SDS-PAGE)” value (“cleavage … (SDS-PAGE)” for short) was “The purified VEGFR2-Fc is efficiently cleaved by wild-type and mutant MT-SP1 ... None of the protease variants or wild-type cleave the Fc domain”.

B2: rat granzyme B I99A/N218A (protein)
chain: IIGGHEAKPHSRPYMAYLQIMDEYSGSKKCGGFLIREDFVLTAAHCSGSKINVTLGAHNIKEQEKMQQIIPVVKIIPHPAYNSKTASNDIMLLKLKSKAKRSSAVKPLNLPRRNVKVKPGDVCYVAGWGKLGPMGKYSDTLQEVELTVQEDQKCESYLKNYFDKANEICAGDPKIKRASFRGDSGGPLVCKKVAAGIVSYGQADGSTPRAFTKVSTFLSWIKKTMKKS
Take B2: the kcat worked out at 0.087 s⁻¹ in series [7], 0.047 s⁻¹ in [9] and 0.26 s⁻¹ in series [10]. For the same molecule, the kcat/Km in series [7] is 32 M⁻¹ s⁻¹; in series [8] it was 1.3 M⁻¹ s⁻¹; in series [9], 37 M⁻¹ s⁻¹; in series [10], 290 M⁻¹ s⁻¹. In addition, the ΔΔGT^‡ in [7] is 0 kcal/mol; in series [8] it was 1.92 kcal/mol; in series [9] it was -0.09 kcal/mol; in series [10] it was -1.33 kcal/mol. Further, the “cleavage … (SDS-PAGE)” value in series [6] is “The purified VEGFR2-Fc is efficiently cleaved by wild-type and mutant granzyme B ... None of the protease variants (wild-type or mutant) cleave the Fc domain”. Also, in series [6], the “in vitro cleavage of soluble Flk1-Fc (gel, FIG. 10)” value was “Wild-type granzyme B and the listed muteins cleave the VEGFR-Fc receptor”. Besides, the Km in series [11] is 2700 µM; in [12], above 2000 µM; in [13] it was 1300 µM; in series [14] it was 890 µM.

B3: wild-type rat granzyme B (protein)
chain: IIGGHEAKPHSRPYMAYLQIMDEYSGSKKCGGFLIREDFVLTAAHCSGSKINVTLGAHNIKEQEKMQQIIPVVKIIPHPAYNSKTISNDIMLLKLKSKAKRSSAVKPLNLPRRNVKVKPGDVCYVAGWGKLGPMGKYSDTLQEVELTVQEDQKCESYLKNYFDKANEICAGDPKIKRASFRGDSGGPLVCKKVAAGIVSYGQNDGSTPRAFTKVSTFLSWIKKTMKK
On to B3, for which the Kcat amounted to 1.2 s⁻¹ in [7]; 0.096 s⁻¹ in [8]; 0.15 s⁻¹ in [16]; 0.39 s⁻¹ in series [17]; 0.15 s⁻¹ in [10]. Also, the Kcat/Km was 3300 M⁻¹ s⁻¹ in series [7]; 87 M⁻¹ s⁻¹ in [8]; 110 M⁻¹ s⁻¹ in [15]; 99 M⁻¹ s⁻¹ in series [16]; 1600 M⁻¹ s⁻¹ in [17]; 1000 M⁻¹ s⁻¹ in [10]. Further, the kcat in [7] is 1.2 s⁻¹; in series [8] it was 0.096 s⁻¹; in [9], 0.0087 s⁻¹; in [16] it was 0.15 s⁻¹; in series [10], 0.15 s⁻¹ and 0.154 s⁻¹. The kcat/Km stood at 3300 M⁻¹ s⁻¹ in [7]; 88 M⁻¹ s⁻¹ in series [8]; 110 M⁻¹ s⁻¹ in series [15]; 14 M⁻¹ s⁻¹ in series [9]; 99 M⁻¹ s⁻¹ in series [16]; 1000 M⁻¹ s⁻¹ in series [10]. Moreover, the ΔΔGT^‡ came out at 0 kcal/mol in [7], 2.18 kcal/mol in series [8], 3.26 kcal/mol in [9] and 0.71 kcal/mol in [10]. For the same molecule, the “cleavage … (SDS-PAGE)” value in series [6] is “The purified VEGFR2-Fc is efficiently cleaved by wild-type and mutant granzyme B ... None of the protease variants (wild-type or mutant) cleave the Fc domain”. Moreover, in series [6], the “in vitro cleavage of soluble Flk1-Fc (gel, FIG. 10)” value is “Wild-type granzyme B and the listed muteins cleave the VEGFR-Fc receptor”. In addition, the Km in series [11] was 370 µM; in series [12], 1100 µM; in series [13], 600 µM; in series [18] it was 1500 µM and 1600 µM; in [19], 250 µM; in [14], 150 µM and 153 µM.

A word on the kcat: it is the maximal rate divided by the concentration of active sites. One may read the kcat/Km as the turnover number divided by the Michaelis constant. Usually Km stands for the substrate concentration at which the rate is half of its maximum.
